According to publication PMC4394351:

Target: GFP-tagged human PPP1R15A (GFP-hR15A) (human) (UniProt O75807)
Experiment: co-IP; as a5, then three washes in GFP-Trap lysis buffer with additional NaCl; 350 mM salt

Sequence of UniProt O75807 (O75807 whole entry): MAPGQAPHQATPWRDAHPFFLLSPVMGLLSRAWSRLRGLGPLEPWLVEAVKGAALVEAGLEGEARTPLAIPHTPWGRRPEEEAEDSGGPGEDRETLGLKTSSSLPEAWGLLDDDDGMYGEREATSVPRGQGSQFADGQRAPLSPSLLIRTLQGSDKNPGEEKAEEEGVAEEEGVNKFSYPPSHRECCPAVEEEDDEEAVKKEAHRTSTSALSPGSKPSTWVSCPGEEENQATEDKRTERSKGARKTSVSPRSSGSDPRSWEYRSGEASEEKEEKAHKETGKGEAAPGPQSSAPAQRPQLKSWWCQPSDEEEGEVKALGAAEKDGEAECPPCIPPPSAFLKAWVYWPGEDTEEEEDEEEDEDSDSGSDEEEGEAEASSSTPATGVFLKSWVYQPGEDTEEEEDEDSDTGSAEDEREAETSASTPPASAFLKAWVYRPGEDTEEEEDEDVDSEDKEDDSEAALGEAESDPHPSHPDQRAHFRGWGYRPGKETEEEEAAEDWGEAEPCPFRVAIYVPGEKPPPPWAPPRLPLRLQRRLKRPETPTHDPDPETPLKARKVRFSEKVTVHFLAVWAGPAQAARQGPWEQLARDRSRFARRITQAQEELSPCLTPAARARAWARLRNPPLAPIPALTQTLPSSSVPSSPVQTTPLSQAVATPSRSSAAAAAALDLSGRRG

percent of the actin bound at 150 mM salt that was lost at 350 mM: 75%
Substance: actin (endogenous, HEK293T cells) (from UniProt P60709 1-375) (natural protein)
